Patent US20110142849A1 (IRM, published 2011)

B1: NVP-LGT211 (antibody, human IgG1, V domains shown)
VH: QVQLVQSGAEVKKPGASVKVSCKASGYTFSTMYMSWVRQAPGQGLEWMGRIDPANEHTNYAQKFQGRVTMTRDTSISTAYMELSRLTSDDTAVYYCARSYYYYAMDYWGQGTLVTVSS
VL: QIVLTQSPATLSVSPGERATLSCRASQSVSYMHWYQQKPGQAPRLLIYGVFRRATGIPDRFSGSGSGTDFTLTIGRLEPEDFAVYYCLQWSSDPPTFGQGTKLEIKR
notes: Silent human IgG1 kappa; also called pSR74 (Vh) + pJG10 (Vk); pSR074 + pJG10
B2: NVP-LFU720 (antibody, V domains shown)
VH: EVQLQQSGAELMKPGASVKLSCTASGFNIKDMYMSWVRQRPEQGLEWIGRIDPANGHTNYDPKFQAKATITTDTSSKTAYLHLSSLTSEDTAVYYCARSYYYYAMDYWGQGTSVTVSS
VL: QIVLTQSPAIMSASPGEKVTMTCSASSSVSYMHWYQQKPGSSPRLWIYLTFNLASGVPARFSGSGSGTSYSLSISSMEAEDAATYYCLQWSSDPPTFGSGTKLEIK
notes: Murine anti-human Pcsk9 IgG1-kappa monoclonal antibody from a hybridoma; also called 5P20; NVP-LFU720-AX-1

Assays:
[1] = molecular target: T1, mouse Pcsk9 with C-terminal his6 tag (mouse, UniProt Q80W65 35-694, limits assumed); assay: not told in the legend
T1 construct: also called murine PCSK9
T1 sequence (Q80W65 other isoform, or with tags, fused parts or gaps limits assumed): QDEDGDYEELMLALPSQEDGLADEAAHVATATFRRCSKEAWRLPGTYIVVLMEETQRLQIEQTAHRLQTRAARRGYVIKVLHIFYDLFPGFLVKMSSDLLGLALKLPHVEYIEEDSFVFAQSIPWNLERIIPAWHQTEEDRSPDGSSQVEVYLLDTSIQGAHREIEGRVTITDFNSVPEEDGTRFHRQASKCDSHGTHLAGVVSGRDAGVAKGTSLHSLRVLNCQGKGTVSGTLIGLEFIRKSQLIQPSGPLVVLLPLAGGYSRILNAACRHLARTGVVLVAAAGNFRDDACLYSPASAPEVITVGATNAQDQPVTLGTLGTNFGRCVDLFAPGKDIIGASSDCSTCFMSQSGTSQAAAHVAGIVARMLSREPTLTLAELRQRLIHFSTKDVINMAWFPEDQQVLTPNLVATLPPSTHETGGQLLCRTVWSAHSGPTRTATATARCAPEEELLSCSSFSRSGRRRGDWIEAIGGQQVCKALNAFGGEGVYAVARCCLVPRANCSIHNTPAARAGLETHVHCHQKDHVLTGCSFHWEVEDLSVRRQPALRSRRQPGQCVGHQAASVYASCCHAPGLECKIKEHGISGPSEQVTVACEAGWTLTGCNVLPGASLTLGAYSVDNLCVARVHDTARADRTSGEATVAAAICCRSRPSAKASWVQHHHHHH

[2] = molecular target: T2, recombinant human Pcsk9 (aa 31-692) with C-terminal his6 tag (human, UniProt Q8NBP7 31-692); assay: SPR (Biacore S51), antibody captured by anti-mouse Fcγ, Pcsk9 in flow
T2 construct: In the TR-FRET assay it carried a fluorophore (hPcsk9-AF); also called hPCSK9; hPcsk9
T2 sequence (Q8NBP7 other isoform, or with tags, fused parts or gaps limits assumed, form in doubt): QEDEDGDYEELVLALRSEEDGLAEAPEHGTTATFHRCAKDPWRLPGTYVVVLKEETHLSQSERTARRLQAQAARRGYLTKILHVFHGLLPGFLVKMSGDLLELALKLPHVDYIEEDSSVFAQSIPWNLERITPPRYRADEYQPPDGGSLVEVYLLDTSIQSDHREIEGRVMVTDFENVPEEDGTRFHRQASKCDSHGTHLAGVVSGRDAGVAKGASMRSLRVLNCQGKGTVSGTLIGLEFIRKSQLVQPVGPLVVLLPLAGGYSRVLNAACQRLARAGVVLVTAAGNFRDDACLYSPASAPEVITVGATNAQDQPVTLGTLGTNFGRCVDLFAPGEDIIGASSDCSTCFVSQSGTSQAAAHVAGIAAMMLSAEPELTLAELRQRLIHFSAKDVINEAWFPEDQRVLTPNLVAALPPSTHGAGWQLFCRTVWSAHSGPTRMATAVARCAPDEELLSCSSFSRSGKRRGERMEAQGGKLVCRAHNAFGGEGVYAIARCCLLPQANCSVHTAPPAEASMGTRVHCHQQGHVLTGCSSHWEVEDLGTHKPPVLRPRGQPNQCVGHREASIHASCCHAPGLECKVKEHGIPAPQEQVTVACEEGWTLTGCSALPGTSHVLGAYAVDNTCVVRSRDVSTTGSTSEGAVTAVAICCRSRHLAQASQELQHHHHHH
Procedure: Binding studies of Pcsk9 to the LFU720 (2 μg/mL) were carried out by capturing the mouse antibody with a rabbit anti-mouse Fcγ antibody (Biacore #BR-1005-14) that was previously immobilized onto a Series S CM-5 Biacore sensor chip (certified) (Biacore #BR-1005-30). Covalent binding of the Fcγ capture antibody was done with the ‘Amine Coupling Kit’ (Biacore #BR-1000-50). The capture antibody (rabbit-anti-mouse) was attached to the EDCactivated dextran surface with a 50 μg/mL anti-Fcγ antibody solution in 10 mM sodium acetate, pH 5 (Biacore #BR-1003-51) at a flow rate of 10 μL/min. A range of concentrations of Pcsk9 from 0.5 μM to 7.8 nM (2 fold serial dilution) were flowed over the captured LFU720 chip in PBS plus 100 mM NaCl, 0.005% P20 (Biacore #BR-1000-54). The resulting sensorgrams were analyzed using the Biacore S51 Evaluation Software. Data from all concentrations was fitted globally to a 1:1 Langmuir model.

R682X = molecular target: T3, R682X (human, UniProt Q8NBP7); assay: co-immunoprecipitation with 5P20, blot
T3 construct: C-terminal truncation mutant, expressed protein; also called Pcsk9 C-term mutant R682X
T3 sequence (Q8NBP7 31-681 limits assumed): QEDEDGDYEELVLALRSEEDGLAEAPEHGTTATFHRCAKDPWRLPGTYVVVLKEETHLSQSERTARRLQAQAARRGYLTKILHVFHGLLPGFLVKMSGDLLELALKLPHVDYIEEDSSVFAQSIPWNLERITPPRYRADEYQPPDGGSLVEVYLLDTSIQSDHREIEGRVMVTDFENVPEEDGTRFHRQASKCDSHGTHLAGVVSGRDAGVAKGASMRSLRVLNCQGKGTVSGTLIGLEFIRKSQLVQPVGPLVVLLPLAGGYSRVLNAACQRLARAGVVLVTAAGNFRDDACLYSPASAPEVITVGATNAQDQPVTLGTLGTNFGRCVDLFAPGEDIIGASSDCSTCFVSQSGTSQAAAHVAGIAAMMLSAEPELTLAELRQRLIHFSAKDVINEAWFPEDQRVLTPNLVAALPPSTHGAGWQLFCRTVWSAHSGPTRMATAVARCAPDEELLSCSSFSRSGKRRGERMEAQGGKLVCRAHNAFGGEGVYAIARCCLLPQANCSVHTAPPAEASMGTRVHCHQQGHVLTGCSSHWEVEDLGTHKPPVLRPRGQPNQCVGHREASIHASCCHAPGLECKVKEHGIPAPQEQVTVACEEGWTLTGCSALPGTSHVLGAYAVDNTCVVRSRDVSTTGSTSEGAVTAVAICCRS

H683X = molecular target: T4, H683X (human, UniProt Q8NBP7); assay: co-immunoprecipitation with 5P20, blot
T4 construct: C-terminal truncation mutant, expressed protein; also called Pcsk9 C-term mutant H683X
T4 sequence (Q8NBP7 31-682 limits assumed): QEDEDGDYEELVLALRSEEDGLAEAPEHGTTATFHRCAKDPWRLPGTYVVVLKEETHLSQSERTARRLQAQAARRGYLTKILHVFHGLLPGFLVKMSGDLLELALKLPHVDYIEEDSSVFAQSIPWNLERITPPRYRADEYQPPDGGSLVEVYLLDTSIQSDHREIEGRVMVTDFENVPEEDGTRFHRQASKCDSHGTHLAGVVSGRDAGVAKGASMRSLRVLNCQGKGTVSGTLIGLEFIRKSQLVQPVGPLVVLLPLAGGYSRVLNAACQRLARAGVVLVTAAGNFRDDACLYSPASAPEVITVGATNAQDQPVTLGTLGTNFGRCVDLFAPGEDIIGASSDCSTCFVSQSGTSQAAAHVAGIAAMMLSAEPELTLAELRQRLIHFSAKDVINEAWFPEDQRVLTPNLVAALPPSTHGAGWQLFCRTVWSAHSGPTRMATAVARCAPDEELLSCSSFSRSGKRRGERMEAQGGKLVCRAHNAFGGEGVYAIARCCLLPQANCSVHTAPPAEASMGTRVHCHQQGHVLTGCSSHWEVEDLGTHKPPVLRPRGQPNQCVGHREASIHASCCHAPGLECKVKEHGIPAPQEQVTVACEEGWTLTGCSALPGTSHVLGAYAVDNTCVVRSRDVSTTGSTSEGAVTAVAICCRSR

A685X = molecular target: T5, A685X (human, UniProt Q8NBP7); assay: co-immunoprecipitation with 5P20, blot
T5 construct: C-terminal truncation mutant, expressed protein; also called C-term mutant A685X
T5 sequence (Q8NBP7 31-684 limits assumed): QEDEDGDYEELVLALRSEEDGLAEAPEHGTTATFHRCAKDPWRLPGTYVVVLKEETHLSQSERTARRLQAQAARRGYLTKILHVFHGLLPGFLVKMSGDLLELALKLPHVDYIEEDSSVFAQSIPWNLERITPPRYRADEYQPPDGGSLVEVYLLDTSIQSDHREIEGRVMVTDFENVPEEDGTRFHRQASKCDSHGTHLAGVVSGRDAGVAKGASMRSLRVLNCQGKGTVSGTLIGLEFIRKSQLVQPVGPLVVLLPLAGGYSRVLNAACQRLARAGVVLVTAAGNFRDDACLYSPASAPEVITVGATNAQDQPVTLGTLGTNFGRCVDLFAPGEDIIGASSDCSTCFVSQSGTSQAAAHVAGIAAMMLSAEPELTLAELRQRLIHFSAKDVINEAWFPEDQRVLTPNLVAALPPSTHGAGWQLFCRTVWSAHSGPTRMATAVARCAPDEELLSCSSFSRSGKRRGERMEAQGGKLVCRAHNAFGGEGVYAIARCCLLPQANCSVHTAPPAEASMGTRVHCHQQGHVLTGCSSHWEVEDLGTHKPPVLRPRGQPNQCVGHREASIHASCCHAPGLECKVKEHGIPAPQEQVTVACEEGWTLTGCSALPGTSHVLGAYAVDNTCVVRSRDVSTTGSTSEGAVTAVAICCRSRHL

S681X = molecular target: T6, S681X (human, UniProt Q8NBP7); assay: co-immunoprecipitation with 5P20, blot
T6 construct: C-terminal truncation mutant, expressed protein; also called Pcsk9 C-term mutant S681X
T6 sequence (Q8NBP7 31-680 limits assumed): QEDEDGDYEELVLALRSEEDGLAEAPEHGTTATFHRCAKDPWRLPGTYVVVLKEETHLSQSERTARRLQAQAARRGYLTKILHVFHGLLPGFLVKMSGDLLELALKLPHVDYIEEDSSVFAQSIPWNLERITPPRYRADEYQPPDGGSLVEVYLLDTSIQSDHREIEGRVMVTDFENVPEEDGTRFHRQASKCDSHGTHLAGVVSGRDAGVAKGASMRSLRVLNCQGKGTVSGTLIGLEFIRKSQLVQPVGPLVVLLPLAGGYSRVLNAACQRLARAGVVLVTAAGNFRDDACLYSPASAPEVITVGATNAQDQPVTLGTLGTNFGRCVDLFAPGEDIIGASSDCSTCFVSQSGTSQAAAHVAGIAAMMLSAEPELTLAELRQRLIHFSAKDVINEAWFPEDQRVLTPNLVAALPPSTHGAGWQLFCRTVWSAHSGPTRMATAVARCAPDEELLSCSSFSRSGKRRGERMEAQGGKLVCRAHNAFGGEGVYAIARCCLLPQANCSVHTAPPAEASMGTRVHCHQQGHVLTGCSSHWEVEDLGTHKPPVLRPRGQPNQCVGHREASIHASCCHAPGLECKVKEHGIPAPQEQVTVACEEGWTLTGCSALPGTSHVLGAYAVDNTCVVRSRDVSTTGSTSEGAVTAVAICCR

| Binder | binding result [1] | Kd [2] | binding result (R682X) | binding result (H683X) | binding result (A685X) | binding result (S681X) |
| --- | --- | --- | --- | --- | --- | --- |
| B1 | no binding |  |  |  |  |  |
| B2 |  | 0.2 nM | no binding | no binding | no binding | no binding |
